Experimental data from patent US20240209113A1 (BEIGENE SWITZERLAND, published 2024).
Where “and” joins values, the source holds several entries; their conditions need not be identical. Identical values can stand only once.

Assays:
[1] = biological target: T1, Mouse CD137 (mouse, UniProt P20334 24-187, limits assumed); experiment: SPR
T1 construct: also called murine CD137
T1 sequence (looked up): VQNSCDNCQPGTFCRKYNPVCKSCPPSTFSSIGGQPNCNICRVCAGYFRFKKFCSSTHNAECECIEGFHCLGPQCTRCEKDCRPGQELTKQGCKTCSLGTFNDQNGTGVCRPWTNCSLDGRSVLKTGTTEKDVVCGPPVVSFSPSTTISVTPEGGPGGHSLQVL

[2] = biological target: Mouse GPC3 (mouse, UniProt Q8CFZ4 25-558, limits assumed); experiment: SPR
Sequence of Mouse GPC3 (Q8CFZ4 25-558 limits assumed): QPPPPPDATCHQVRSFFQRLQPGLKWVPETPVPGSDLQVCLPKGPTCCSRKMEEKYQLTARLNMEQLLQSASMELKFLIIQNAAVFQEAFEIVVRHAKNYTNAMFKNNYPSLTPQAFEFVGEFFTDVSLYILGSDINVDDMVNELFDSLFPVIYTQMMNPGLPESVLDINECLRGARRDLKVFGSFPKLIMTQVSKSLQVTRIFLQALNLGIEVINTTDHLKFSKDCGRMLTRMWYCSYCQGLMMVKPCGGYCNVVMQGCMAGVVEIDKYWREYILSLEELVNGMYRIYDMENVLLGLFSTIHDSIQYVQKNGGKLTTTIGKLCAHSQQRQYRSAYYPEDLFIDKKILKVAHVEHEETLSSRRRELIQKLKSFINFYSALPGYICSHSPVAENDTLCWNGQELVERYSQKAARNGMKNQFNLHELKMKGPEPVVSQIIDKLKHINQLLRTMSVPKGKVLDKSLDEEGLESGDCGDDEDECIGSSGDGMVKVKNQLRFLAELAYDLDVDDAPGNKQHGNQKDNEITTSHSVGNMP

[3] = biological target: FcγRI (UniProt P12314 16-288, limits assumed); experiment: ELISA
Sequence of FcγRI (P12314 16-288 limits assumed): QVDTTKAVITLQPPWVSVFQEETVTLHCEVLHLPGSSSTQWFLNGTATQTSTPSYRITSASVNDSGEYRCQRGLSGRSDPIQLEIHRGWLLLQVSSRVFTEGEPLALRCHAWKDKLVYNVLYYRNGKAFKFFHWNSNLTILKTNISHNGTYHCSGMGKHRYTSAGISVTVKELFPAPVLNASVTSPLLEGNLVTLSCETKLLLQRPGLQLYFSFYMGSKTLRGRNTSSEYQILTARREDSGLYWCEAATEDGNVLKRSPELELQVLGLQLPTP

[4] = biological target: T2, FcγRIIAH131 (UniProt P12318 36-218, limits assumed); experiment: ELISA
T2 sequence (looked up): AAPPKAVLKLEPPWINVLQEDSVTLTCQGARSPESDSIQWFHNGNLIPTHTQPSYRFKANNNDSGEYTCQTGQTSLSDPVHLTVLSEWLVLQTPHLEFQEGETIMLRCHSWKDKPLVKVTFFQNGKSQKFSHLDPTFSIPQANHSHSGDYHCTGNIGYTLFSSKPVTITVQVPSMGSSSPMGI

[5] = biological target: T3, FcγRIIAR131 (UniProt P12318 36-218, limits assumed); experiment: ELISA
T3 sequence (looked up): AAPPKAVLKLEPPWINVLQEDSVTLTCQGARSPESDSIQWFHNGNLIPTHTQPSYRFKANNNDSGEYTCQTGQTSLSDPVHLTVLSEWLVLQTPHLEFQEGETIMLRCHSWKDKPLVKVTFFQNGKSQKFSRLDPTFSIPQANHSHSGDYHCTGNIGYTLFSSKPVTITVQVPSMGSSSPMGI

[6] = biological target: T4, FcγRIIB (UniProt P31994 43-217, limits assumed); experiment: ELISA
T4 sequence (looked up): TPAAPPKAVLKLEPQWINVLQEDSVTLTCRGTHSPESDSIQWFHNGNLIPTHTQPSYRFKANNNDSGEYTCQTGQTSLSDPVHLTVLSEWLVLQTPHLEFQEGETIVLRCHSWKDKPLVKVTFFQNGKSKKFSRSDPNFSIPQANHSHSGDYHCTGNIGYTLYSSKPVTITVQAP

[7] = biological target: FcγRIIIAV158 (UniProt P08637 17-208, limits assumed); experiment: ELISA
Sequence of FcγRIIIAV158 (P08637 17-208 F176V limits assumed): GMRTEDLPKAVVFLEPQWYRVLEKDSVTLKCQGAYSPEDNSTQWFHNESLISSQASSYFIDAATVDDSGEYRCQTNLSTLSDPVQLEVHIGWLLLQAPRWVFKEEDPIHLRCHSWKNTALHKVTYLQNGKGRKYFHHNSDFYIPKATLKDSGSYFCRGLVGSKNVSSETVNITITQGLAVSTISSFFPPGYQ

[8] = biological target: FcγRIIIAF158 (UniProt P08637 17-208, limits assumed); experiment: ELISA
Sequence of FcγRIIIAF158 (P08637 17-208 limits assumed): as the sequence (P08637 17-208 F176V limits assumed) above, with V160F counted along it

[9] = biological target: FcγRIIIB (UniProt O75015 17-200, limits assumed); experiment: ELISA
Sequence of FcγRIIIB (O75015 17-200 limits assumed): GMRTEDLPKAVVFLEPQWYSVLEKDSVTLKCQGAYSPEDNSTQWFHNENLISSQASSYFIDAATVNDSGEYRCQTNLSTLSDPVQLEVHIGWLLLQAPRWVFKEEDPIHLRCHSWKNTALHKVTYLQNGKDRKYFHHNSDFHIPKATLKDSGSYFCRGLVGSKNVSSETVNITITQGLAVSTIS

[10] = biological target: T5, Human CD137 (recombinant protein, Example 11) (human, UniProt Q07011 24-186); experiment: SPR
T5 sequence (Q07011 24-186 limits assumed): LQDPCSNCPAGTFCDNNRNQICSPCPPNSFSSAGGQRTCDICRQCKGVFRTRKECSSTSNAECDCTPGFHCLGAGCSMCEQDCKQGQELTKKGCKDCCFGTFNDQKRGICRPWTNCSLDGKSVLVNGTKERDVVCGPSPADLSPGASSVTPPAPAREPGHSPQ

[11] = biological target: T6, Monkey CD137 (recombinant protein, Example 11) (cynomolgus monkey, UniProt Q07011 24-186 (human entry), limits assumed); experiment: SPR
T6 construct: also called cynomolgus monkey CD137
T6 chain: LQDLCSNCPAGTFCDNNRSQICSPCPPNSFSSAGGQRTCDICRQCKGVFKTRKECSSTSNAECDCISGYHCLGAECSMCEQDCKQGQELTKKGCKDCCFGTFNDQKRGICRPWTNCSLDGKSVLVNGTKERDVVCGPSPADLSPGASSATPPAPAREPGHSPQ

[12] = biological target: T7, Human GPC3 (recombinant protein, Example 11) (human, UniProt P51654 25-559, limits assumed); experiment: SPR
[13] = biological target: T8, Monkey GPC3 (cynomolgous monkey, UniProt A0A2K5VK50 24-553); experiment: SPR
T8 construct: Bought protein; also called monkey GPC3 (Cat #GP3-C5225, Acrobiosystem)

[14] = biological target: T9, full-length human CD137 on cells (human, UniProt Q07011 24-255); experiment: cell-based or functional assay
T9 sequence (Q07011 24-255 limits assumed): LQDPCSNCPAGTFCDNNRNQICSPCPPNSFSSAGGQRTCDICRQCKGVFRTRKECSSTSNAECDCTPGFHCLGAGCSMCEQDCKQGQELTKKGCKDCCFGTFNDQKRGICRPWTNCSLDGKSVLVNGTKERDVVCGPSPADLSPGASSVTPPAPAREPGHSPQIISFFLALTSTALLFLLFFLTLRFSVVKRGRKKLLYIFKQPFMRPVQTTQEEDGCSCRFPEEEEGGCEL

[15] = biological target: T10, human GPC3 on cells (human, UniProt P51654 25-559); experiment: cell-based or functional assay
[16] = biological target: T9, full-length human CD137 on cells; experiment: FACS on HuT78/CD137 cells
[17] = biological target: T10, human GPC3 on cells; experiment: FACS on Hepa1-6T-OS8-GPC3 cells
[18] = biological target: C1q (UniProt P02745 23-245; P02746 28-253; P02747 29-245); experiment: C1q binding ELISA
Sequence of C1q (P02745 23-245, chain 1 of 3): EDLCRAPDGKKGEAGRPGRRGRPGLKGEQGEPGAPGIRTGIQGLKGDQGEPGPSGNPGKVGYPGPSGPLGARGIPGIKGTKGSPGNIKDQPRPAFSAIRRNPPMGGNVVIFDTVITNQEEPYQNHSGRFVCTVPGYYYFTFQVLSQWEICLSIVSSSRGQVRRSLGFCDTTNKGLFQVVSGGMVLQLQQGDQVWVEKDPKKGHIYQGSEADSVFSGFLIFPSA
Sequence of C1q (P02746 28-253, chain 2 of 3): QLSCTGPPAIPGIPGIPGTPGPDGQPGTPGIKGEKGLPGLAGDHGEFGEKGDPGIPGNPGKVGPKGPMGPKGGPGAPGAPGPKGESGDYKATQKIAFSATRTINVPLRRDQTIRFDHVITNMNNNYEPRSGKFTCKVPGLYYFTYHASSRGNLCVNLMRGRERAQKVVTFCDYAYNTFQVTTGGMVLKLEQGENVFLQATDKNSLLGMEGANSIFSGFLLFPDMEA
Sequence of C1q (P02747 29-245, chain 3 of 3): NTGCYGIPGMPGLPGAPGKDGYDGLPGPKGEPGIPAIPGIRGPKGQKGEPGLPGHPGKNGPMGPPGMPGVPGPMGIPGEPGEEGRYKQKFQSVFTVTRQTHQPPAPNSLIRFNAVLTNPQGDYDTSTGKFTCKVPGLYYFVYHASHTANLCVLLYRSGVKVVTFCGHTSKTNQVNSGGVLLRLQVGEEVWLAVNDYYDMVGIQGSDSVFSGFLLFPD

[19] = biological target: human CD137 ECD mutant F36A (human, UniProt Q07011 24-186); experiment: ELISA on wild type and mutant CD137 proteins
Sequence of human CD137 ECD mutant F36A (Q07011 24-186 F36A limits assumed): as the sequence (Q07011 24-186 limits assumed) above, with F13A counted along it

[20] = biological target: human CD137 ECD mutant P47A (human, UniProt Q07011 24-186); experiment: ELISA on wild type and mutant CD137 proteins
Sequence of human CD137 ECD mutant P47A (Q07011 24-186 P47A limits assumed): as the sequence (Q07011 24-186 limits assumed) above, with P24A counted along it

[21] = biological target: human CD137 ECD mutant P49A (human, UniProt Q07011 24-186); experiment: ELISA on wild type and mutant CD137 proteins
Sequence of human CD137 ECD mutant P49A (Q07011 24-186 P49A limits assumed): as the sequence (Q07011 24-186 limits assumed) above, with P26A counted along it

[22] = biological target: T11, DS50b (human GPC3 AA 511-560) (human, constructed to the N terminal of biotin, generating DS50b-KLH (so in the source)); experiment: ELISA on DS50b-KLH [B]
T11 construct: also called DS50b-KLH
T11 peptide: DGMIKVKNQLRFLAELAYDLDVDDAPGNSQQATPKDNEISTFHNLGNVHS

[23] = biological target: T12, GK28b (human GPC3 AA 537-563) (human, constructed to the N terminal of biotin, generating GK28b-KLH (so in the source)); experiment: ELISA on GK28b-KLH [A]
T12 construct: also called GK28b-KLH
T12 peptide: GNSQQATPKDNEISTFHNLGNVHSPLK

[24] = biological target: T13, huGPC3-His (human, UniProt P51654 25-559); experiment: ELISA on huGPC3-His [C]
T13 construct: not shown: His tag

[25] = biological target: T5, Human CD137 (recombinant protein, …); experiment: dual antigen binding ELISA with CD137 and GPC3 bound at the same time; which antigen is coated is not stated
[26] = biological target: T7, Human GPC3 (recombinant protein, …); experiment: as above

B1: BE-830 (bispecific antibody, human IgG1, kappa)
heavy: QVQLVQSGAEVKKPGASVKVSCKASGYTFTDYEMHWVRQAPGQGLEWMGALDPKTGDTAYSQKFKGRVTLTADKSTSTAYMELSSLTSEDTAVYYCTRFYSYTYWGQGTLVTVSSASTKGPSVFPLAPSSKSTSGGTAALGCLVKDYFPEPVTVSWNSGALTSGVHTFPAVLQSSGLYSLSSVVTVPSSSLGTQTYICNVNHKPSNTKVDKKVEPKSCDKTHTCPPCPAPPAAGPSVFLFPPKPKDTLMISRTPEVTCVVVDVSHEDPEVKFNWYVDGVEVHNAKTKPREEQYNSTYRVVSVLTVLHQDWLNGKEYKCKVSNKALAAPIEKTISKAKGQPREPQVYTLPPSREEMTKNQVSLTCLVKGFYPSDIAVEWESNGQPENNYKTTPPVLDSDGSFFLYSKLTVDKSRWQQGNVFSCSVMHEALHNHYTQKSLSLSPGKGGGGSEVQLLESGGGLVQPGGSLRLSCAASGFTVSAEDVGWVRQAPGKGLEWVSAILDKGGSTYYAESVKGRFTISRDNAKNTLYLQMSSLRAEDTAVYYCARIVYHAGGGVTFDTRGQGTQVTVSS
light: DVVMTQSPLSLPVTPGEPASISCRSSQSLVHSNRNTYLHWYLQKPGQSPQLLIYKVSNRFSGVPDRFSGSGSGTDFTLKISRVEAEDVGVYYCSQNTHVPPTFGQGTKLEIKRTVAAPSVFIFPPSDEQLKSGTASVVCLLNNFYPREAKVQWKVDNALQSGNSQESVTEQDSKDSTYSLSSTLTLSKADYEKHKVYACEVTHQGLSSPVTKSFNRGEC
notes: also called GPC3×CD137 multispecific antibody BE-830; GPC3 x CD137 (BE-830)
binding result [1]: no binding
binding result [2]: no binding
binding result [3]: no binding
binding result [4]: no binding
binding result [5]: no binding
binding result [6]: no binding
binding result [7]: no binding
binding result [8]: no binding
binding result [9]: no binding
Kd [10]: 40.1 nM
koff [10]: 0.00484 s⁻¹
kon [10]: 121000 M⁻¹ s⁻¹
Kd [11]: 19.2 nM
koff [11]: 0.00291 s⁻¹
kon [11]: 152000 M⁻¹ s⁻¹
Kd [12]: 0.559 nM
koff [12]: 0.000312 s⁻¹
kon [12]: 559000 M⁻¹ s⁻¹
Kd [13]: 0.643 nM
koff [13]: 0.000273 s⁻¹
kon [13]: 425000 M⁻¹ s⁻¹
EC50, cell-based bioluminescent assay (NFκB luciferase in JK-NFκB-CD137 co-cultured with Hepa1-6T-OS8-GPC3) [14]: 0.149 µg/ml and 0.86 nM
EC50, cell-based bioluminescent assay (NFκB luciferase in JK-NFκB-CD137 co-cultured with Hepa1-6T-OS8-GPC3) [15]: 0.149 µg/ml and 0.86 nM
EC50 [16]: 0.712 µg/mL and 4.09 nM
EC50 [17]: 1.11 µg/mL and 6.41 nM
EC50 (read off the curve) [18]: ~2 µg/mL
decrease of binding activity against wild type CD137 [19]: > 75%
decrease of binding activity against wild type CD137 [20]: > 75%
decrease of binding activity against wild type CD137 [21]: > 75%
EC50 (read off the curve) [22]: ~0.009 µg/mL
EC50 (read off the curve) [23]: ~0.008 µg/mL
EC50 (read off the curve) [24]: ~0.04 µg/mL
EC50 (read off the curve) [25]: ~0.07 µg/mL
EC50 (read off the curve) [26]: ~0.07 µg/mL
